Data reported in patent US7531500B2, “Preventing airway mucus production by administration of EGF-R antagonists” (The Regents of the University of California, priority 1998, dated 2009).

How the values were obtained:
NCI-H292 cells = experiment: Immunoassay of MUC5AC protein in NCI-H292 cells (Example 2); assay type: cell-based, human
Method: Cell Culture. NCI-H292 cells, a human pulmonary mucoepidermoid carcinoma cell line, were grown in RPMI 1640 medium containing 10% fetal bovine serum, penicillin (100 U/ml), streptomycin (100 μg/ml) and Hepes (25 mM) at 37° C. in a humidified 5% CO2, water-jacketed incubator. Either 6-well culture plates or 8-chamber slides were used to culture the cells. […] The cells were then washed and incubated with fresh medium alone. Experiments were terminated at preselected times (for mRNA, 6 h and 12 h; for protein, 24 h). As controls, cells were incubated with medium alone for same time periods. […] In inhibition studies with blocking antibodies to EGF-R ligands, the supernatants were pretreated with anti-TGFα antibody (Calbiochem) or anti-EGF antibody for 30 min and then added to NCI-H292 cells. The role of oxygen free radicals was examined using scavengers of oxygen free radical DMSO (1%, Sigma), 1,3-dimethyl-2-thiourea (DMTU, 50 mM, Sigma), or superoxide dismutase (SOD, 300 U/ml, Sigma).
Preparation of Cigarette Smoke Solution. Research cigarettes (code2R1, produced for the University of Kentucky Tobacco and Health Research Foundation) were used in the study. Cigarette smoke solution was prepared as previously described (Dusser et al. (1989) J. Clin. Invest. 84:900-906). In brief, cigarette smoke was withdrawn into a polypropylene syringe (35 ml) at a rate of one puff/min (10 times) and bubbled slowly into 20 ml of RPM11640 containing 50 mM Hepes buffer. The smoke solution was then titrated to pH 7,4 and used immediately after preparation.
Immunoassay of MUC5AC Protein. MUC5AC protein was measured as described above. In brief, cell lysates were prepared with PBS at multiple dilutions, and 50 μl of each sample was incubated with bicarbonate-carbonate buffer (50 μl) at 40° C. in a 96-well plate (Maxisorp Nunc, Fisher Scientific, Santa Clara, Calif.), until dry. Plates were washed three times with PBS and blocked with 2% BSA (fraction V, Sigma) for 1 h at room temperature. Plates were again washed three times with PBS and then incubated with 50 μl of mouse monoclonal MUC5AC antibody (1:100) that was diluted with PBS containing 0.05% Tween 20. After 1 h, the wells were washed three times with PBS, and 100 μl horseradish peroxidase-goat anti-mouse IgG conjugate (1:10,000, Sigma) was dispensed into each well. After 1 h, plates were washed three times with PBS. Color reaction was developed with TMB peroxidase solution (Kirkegaard & Perry Laboratories, Gaithersburg, Md.) and stopped with 2N H2SO4. Absorbance was read at 450 nm.

sensitized rats = experiment: Goblet cell production in ovalbumin-sensitized rats (asthma model); assay type: in vivo, rat; conditions: for Goblet cells in tracheal epithelium: counted over 2 mm basal lamina, 5 rats
Method: Sensitization. Rats were sensitized on days 0 and 10 with intraperitoneal injections of ovalbumin (10 mg, grade V; Sigma, St. Louis, Mo.), complexed with 100 mg of aluminum hydroxide in 0.5 ml of sterile saline, Rats then rested for 10 days. On day 20, ovalbumin was delivered directly into the trachea; animals were challenged with 100 μl of 0.1% ovalbumin in saline by intratracheal instillation three times (days 20, 22 and 24). Rats were euthanized either without challenge (day 20), or 48 h after the third challenge (day 26). This procedure induced goblet cell metaplasia. To block the goblet cell hyperplasia, sensitized rats were pretreated with an EGF-R tyrosine kinase inhibitor, BIBX1522. On days of ovalbumin challenge (days 20, 22 and 24), sensitized rats were pretreated with BIBX1 522 (10 mg/kg, i.p., 1 h before the challenge) and then BIBX1522 was also instilled into the trachea together with ovalbumin (BIBX1522, 10^−5M, 100 μl). BIBX1522 was also injected i.p. every 24 h until the day before the rats were euthanized. After the animals were euthanized, the trachea was removed 48 h after the third challenge.
Tissue preparation. At preselected times during anesthesia, the systemic circulation was perfused with 1% paraformaldehyde in DEPC-treated PBS at a pressure of 120 mmHg. The trachea was then removed and placed in 4% paraformaldehyde for 24 h. After fixation, trachea and lungs were embedded in either JB-4 plus monomer solution A for cell analysis or O.C.T. compound (Sakura Finetek U.S.A., Inc., Torrance, Calif.) for immunohistochemistry and in situ hybridization. The embedded tissues were cut as cross sections ([…] thick) and placed on slides.
Cell analysis. We counted the total number of epithelial cells by counting epithelial cell nuclei over 2 mm of the basal lamina with an oil immersion objective lens (×1000 magnification). The linear length of the basal lamina under each analyzed region of epithelium was determined by tracing the contour of the digitized image of the basal lamina. After instillation of stimuli, “developing” goblet cells form. These cells have Alcian blue/PAS-positive granules, but the size of granules is small, and the number of cytoplasmic granules is few. We call these “developing” goblet cells “pre-goblet cells”, a stage before cells become mature goblet cells. Goblet cells are tall, cuboidal, goblet to low columnar in shape, with abundant Alcian blue/PAS-stained granules filling most of the cytoplasm between the nucleus and the luminal surface. Pre-goblet cells are defined as cells with smaller mucus-stained areas (<1/3 height in epithelium from basement membrane to luminal surface) or with sparsely and lightly Alcian blue/PAS-stained, small granules. Ciliated cells are recognized by their ciliated borders, lightly stained cytoplasm, and large round nuclei. Non-granulated secretory cells are columnar in shape and extend from the lumen to the basal lamina. The cytoplasm stains light pink color, and a few tiny PAS-positive and Alcian blue-negative granules are observed in the cytoplasm. Basal cells are small flattened cells with a large nucleus, located just above the basal lamina but not reaching the airway lumen.
Quantification of goblet cell production. Goblet cell production, was determined by the volume density of Alcian blue/PAS-stained mucosubstances on the mucosal surface epithelium using a semi-automatic imaging system described elsewhere (Weber et al. (1984) Science 224:294-297). We measured the Alcian blue/PAS-positive stained area and the total epithelial area and expressed the data as the percentage of the total area stained by Alcian blue-PAS. The analysis was performed with the public domain NIH Image program (developed at the U.S. National Institute of Health and available from the Internet by anonymous FTP from zippy.nimh.gov or on floppy disk from the National Technical Information Service, Springfield, Va., part number PB95-500195GEI).

IL-8: recombinant human IL-8 (Genzyme)
MUC5AC synthesis, stimulus alone without neutrophils (NCI-H292 cells; 1 h incubation, protein at 24 h, IL-8 10^-8 M, fMLP 10^-8 M, TNFα 20 ng/ml): no effect

CNC(=S)NC [DMTU, 1,3-dimethyl-2-thiourea]
MUC5AC synthesis by supernatant of activated neutrophils, cigarette smoke and H2O2 (NCI-H292 cells; DMSO 1%, DMTU 50 mM, SOD 300 U/ml): significantly inhibited

B1: Ova: ovalbumin, grade V (Sigma), used to sensitize and challenge rats (protein, UniProt P01012 2-386, looked up)
Ovalbumin: GSIGAASMEFCFDVFKELKVHHANENIFYCPIAIMSALAMVYLGAKDSTRTQINKVVRFDKLPGFGDSIEAQCGTSVNVHSSLRDILNQITKPNDVYSFSLASRLYAEERYPILPEYLQCVKELYRGGLEPINFQTAADQARELINSWVESQTNGIIRNVLQPSSVDSQTAMVLVNAIVFKGLWEKAFKDEDTQAMPFRVTEQESKPVQMMYQIGLFRVASMASEKMKILELPFASGTMSMLVLLPDEVSGLEQLESIINFEKLTEWTSSNVMEERKIKVYLPRMKMEEKYNLTSVLMAMGITDVFSSSANLSGISSAESLKISQAVHAAHAEINEAGREVVGSAEAGVDAASVSEEFRADHPFLFCIKHIATNAVLFFGRCVSP
% of AB/PAS-stained area (sensitized rats; Ova i.p. + i.t.): 38.7 ± 6.2 % | Basal cells in tracheal epithelium (sensitized rats; Ova i.p. + i.t.): 59.8 ± 2.9 | Ciliated cells in tracheal epithelium (sensitized rats; Ova i.p. + i.t.): 52.4 ± 7.1 | Indeterminate cells in tracheal epithelium (sensitized rats; Ova i.p. + i.t.): 2.6 ± 0.5 | Pre-goblet cells in tracheal epithelium (sensitized rats; Ova i.p. + i.t.): 36.0 ± 6.3 | Secretory cells in tracheal epithelium (sensitized rats; Ova i.p. + i.t.): 49.8 ± 4.2 | Total cells in tracheal epithelium (sensitized rats; Ova i.p. + i.t.): 238.8 ± 4.4 | % of AB/PAS-stained area (sensitized rats; Ova i.p. only): 7.8 ± 2.9% | Basal cells in tracheal epithelium (sensitized rats; Ova i.p. only): 60.2 ± 3.4 | Ciliated cells in tracheal epithelium (sensitized rats; Ova i.p. only): 56.4 ± 3.8 | Indeterminate cells in tracheal epithelium (sensitized rats; Ova i.p. only): 1.4 ± 0.2 | Pre-goblet cells in tracheal epithelium (sensitized rats; Ova i.p. only): 13.8 ± 1.4 | Secretory cells in tracheal epithelium (sensitized rats; Ova i.p. only): 67.6 ± 7.0 | Total cells in tracheal epithelium (sensitized rats; Ova i.p. only): 204.8 ± 6.6 | Goblet cells in tracheal epithelium (sensitized rats; Ova sensitization i.p. + i.t.): 38.2 ± 6.3 | Goblet cells in tracheal epithelium (sensitized rats; Ova sensitization i.p. only): 5.4 ± 1.5
